The chains are these.
B1: MMP-9: matrix metalloproteinase subjected to MT1-MMP sandwich EIA for cross reactivity (protein)
chain: APRQRQSTLVLFPGDLRTNLTDRQLAEEYLYRYGYTRVAEMRGESKSLGPALLLLQKQLSLPETGELDSATLKAMRTPRCGVPDLGRFQTFEGDLKWHHHNITYWIQNYSEDLPRAVIDDAFARAFALWSAVTPLTFTRVYSRDADIVIQFGVAEHGDGYPFDGKDGLLAHAFPPGPGIQGDAHFDDDELWSLGKGVVVPTRFGNADGAACHFPFIFEGRSYSACTTDGRSDGLPWCSTTANYDTDDRFGFCPSERLYTQDGNADGKPCQFPFIFQGQSYSACTTDGRSDGYRWCATTANYDRDKLFGFCPTRADSTVMGGNSAGELCVFPFTFLGKEYSTCTSEGRGDGRLWCATTSNFDSDKKWGFCPDQGYSLFLVAAHEFGHALGLDHSSVPEALMYPMYRFTEGPPLHKDDVNGIRHLYGPRPEPEPRPPTTTTPQPTAPPTVCPTGPPTVHPSERPTAGPTGPPSAGPTGPPTAGPSTATTVPLSPVDDACNVNIFDAIAEIGNQLYLFKDGKYWRFSEGRGSRPQGPFLIADKWPALPRKLDSVFEERLSKKLFFFSGRQVWVYTGASVLGPRRLDKLGLGADVAQVTGALRSGRGKMLLFSGRRLWRFDVKAQMVDPRSASEVDRMFPGVPLDTHDVFQYREKAYFCQDRFYWRVSSRSELNQVDQVGYVTYDILQCPED
B2: MMP-2: matrix metalloproteinase subjected to MT1-MMP sandwich EIA for cross reactivity (protein)
chain: APSPIIKFPGDVAPKTDKELAVQYLNTFYGCPKESCNLFVLKDTLKKMQKFFGLPQTGDLDQNTIETMRKPRCGNPDVANYNFFPRKPKWDKNQITYRIIGYTPDLDPETVDDAFARAFQVWSDVTPLRFSRIHDGEADIMINFGRWEHGDGYPFDGKDGLLAHAFAPGTGVGGDSHFDDDELWTLGEGQVVRVKYGNADGEYCKFPFLFNGKEYNSCTDTGRSDGFLWCSTTYNFEKDGKYGFCPHEALFTMGGNAEGQPCKFPFRFQGTSYDSCTTEGRTDGYRWCGTTEDYDRDKKYGFCPETAMSTVGGNSEGAPCVFPFTFLGNKYESCTSAGRSDGKMWCATTANYDDDRKWGFCPDQGYSLFLVAAHEFGHAMGLEHSQDPGALMAPIYTYTKNFRLSQDDIKGIQELYGASPDIDLGTGPTPTLGPVTPEICKQDIVFDGIAQIRGEIFFFKDRFIWRTVTPRDKPMGPLLVATFWPELPEKIDAVYEAPQEEKAVFFAGNEYWIYSASTLERGYPKPLTSLGLPPDVQRVDAAFNWSKNKKTYIFAGDKFWRYNEVKKKMDPGFPKLIADAWNAIPDNLDAVVDLQGGGHSYFFKGAYYLKLENQSLKSVKFGSIKSDWLGC
B3: MMP-20: matrix metalloproteinase subjected to MT1-MMP sandwich EIA for cross reactivity (protein)
chain: APSLVAASPRTWRNNYRLAQAYLDKYYTNKEGHQIGEMVARGSNSMIRKIKELQAFFGLQVTGKLDQTTMNVIKKPRCGVPDVANYRLFPGEPKWKKNTLTYRISKYTPSMSSVEVDKAVEMALQAWSSAVPLSFVRINSGEADIMISFENGDHGDSYPFDGPRGTLAHAFAPGEGLGGDTHFDNAEKWTMGTNGFNLFTVAAHEFGHALGLAHSTDPSALMYPTYKYKNPYGFHLPKDDVKGIQALYGPRKVFLGKPTLPHAPHHKPSIPDLCDSSSSFDAVTMLGKELLLFKDRIFWRRQVHLRTGIRPSTITSSFPQLMSNVDAAYEVAERGTAYFFKGPHYWITRGFQMQGPPRTIYDFGFPRHVQQIDAAVYLREPQKTLFFVGDEYYSYDERKRKMEKDYPKNTEEEFSGVNGQIDAAVELNGYIYFFSGPKTYKYDTEKEDVVSVVKSSSWIGC
B4: MMP-19: matrix metalloproteinase subjected to MT1-MMP sandwich EIA for cross reactivity (protein)
chain: RVLGLAEVAPVDYLSQYGYLQKPLEGSNNFKPEDITEALRAFQEASELPVSGQLDDATRARMRQPRCGLEDPFNQKTLKYLLLGRWRKKHLTFRILNLPSTLPPHTARAALRQAFQDWSNVAPLTFQEVQAGAADIRLSFHGRQSSYCSNTFDGPGRVLAHADIPELGSVHFDEDEFWTEGTYRGVNLRIIAAHEVGHALGLGHSRYSQALMAPVYEGYRPHFKLHPDDVAGIQALYGKKSPVIRDEEEEETELPTVPPVPTEPSPMPDPCSSELDAMMLGPRGKTYAFKGDYVWTVSDSGPGPLFRVSALWEGLPGNLDAAVYSPRTQWIHFFKGDKVWRYINFKMSPGFPKKLNRVEPNLDAALYWPLNQKVFLFKGSGYWQWDELARTDFSSYPKPIKGLFTGVPNQPSAAMSWQDGRVYFFKGKVYWRLNQQLRVEKGYPRNISHNWMHCRPRTIDTTPSGGNTTPSGTGITLDTTLSATETTFEY
B5: MMP-1: matrix metalloproteinase subjected to MT1-MMP sandwich EIA for cross reactivity (protein)
chain: FPATLETQEQDVDLVQKYLEKYYNLKNDGRQVEKRRNSGPVVEKLKQMQEFFGLKVTGKPDAETLKVMKQPRCGVPDVAQFVLTEGNPRWEQTHLTYRIENYTPDLPRADVDHAIEKAFQLWSNVTPLTFTKVSEGQADIMISFVRGDHRDNSPFDGPGGNLAHAFQPGPGIGGDAHFDEDERWTNNFREYNLHRVAAHELGHSLGLSHSTDIGALMYPSYTFSGDVQLAQDDIDGIQAIYGRSQNPVQPIGPQTPKACDSKLTFDAITTIRGEVMFFKDRFYMRTNPFYPEVELNFISVFWPQLPNGLEAAYEFADRDEVRFFKGNKYWAVQGQNVLHGYPKDIYSSFGFPRTVKHIDAALSEENTGKTYFFVANKYWRYDEYKRSMDPGYPKMIAHDFPGIGHKVDAVFMKDGFFYFFHGTRQYKFDPKTKRILTLQKANSWFNCRKN

In the test the target is T1, MT1-MMP sandwich EIA (solid-phase antibody 222-2D12, labeled antibody 222-1D8) (Homo sapiens, UniProt P50281).
T1 construct: 488 amino acid residues of Δ MT1-MMP (G^48 to G^53) which lacks the signal peptide and part of the propeptide region; made in house; host or cells: E. coli
In words: Specificity test: cross reactivity on MT1-MMP sandwich EIA. It counts as binding. The note with it: concentration 1 μg/mL; blank 0.027. Here is the method:
Monoclonal antibodies (e.g., 333-2D12 (IgG)) were dissolved in 0.1 M phosphate buffer, pH 7.0 to a concentration of 25 μg/mL. The monoclonal antibody solution was added to each well of a 96-well microwell (Maxisorp; Nunc-Immuno Module) at 100 μL per well and allowed to stand at 4° C. for 24 hrs. […] The solid-phase antibodies were preserved at 4° C.
Standard antigens or samples to be assayed were dispensed into a 96-well vinyl plate at 25 μL each. To each well was added a dilution buffer in aliquots of 100 μL, followed by mixing. An aliquot (100 μL) of the resultant mixture was taken out, dispensed into an antibody-solid phased plate from which a blocking solution was removed by washing. The plate was then allowed to stand at 4° C. for 16 hours.
[…] antibody 222-1D8 (Fab′-HRP) was diluted with a blocking solution to a concentration of 0.4 μg/mL. The reaction solution was removed from the antibody-solid phased plate where the primary reaction was completed. The plate was washed with a washing liquid three times and an aliquot (100 μL) of the labeled antibody solution was added to each well. The plate was allowed to stand at room temperature for 1 hour.
After completion of the reaction, the labeled antibody solution was removed. The plate was then washed with a washing liquid three times, and a TMB solution (CALBIOCHEM) was added to each well at 100 μL. The mixture was allowed to react at room temperature for 20 minute. The reaction was stopped with the addition of 2 N sulfuric acid at 100 μL per well. The reaction mixture was measured for A450 with a microplate reader (MPR-A4; Tosoh).
Each of MMP-1, -2, -3, -4, -7, -8, -9, -13, -19 and -20 was prepared to give a concentration of 1 μg/mL, and subjected to MT1-MMP sandwich EIA. A450 was measured. When MT1-MMP was subjected to sandwich EIA at 0.16 μg/mL, the absorbance was 2.206. However, when the above MMPs were subjected, their absorbances were only an extent of 0.024 to 0.071. Accordingly, it has been verified that MT1-MMP sandwich EIA is specifically reactive with MT1-MMP.
For B1, the A450 is given as 0.039.

In turn, B2 had an A450 of 0.024.

B3: the A450 is 0.071.

The molecule B4 came in with an A450 of 0.027.

B5: the A450 is 0.025.

The record behind these values is patent US20040096899A1, “Immunoassay method for membrane-bound matrix metalloprotease” (priority 2000, published 2004).
